The values that follow come from the RNAGym collection of RNA variant scans (doi:10.7554/elife.90254).

To fix the notation:
B1: LINE1-full (parent)
chain: UACGUAGGUGGUUUUCCCCUGAUAGUGCUAAGGGGGCCUGGAAGUUUGGACUGGGCAGAGCUCAACACAGCGUGGCAAAGUGGCUGUGGCUAGACUGCCUCUCUGGAUUCCUCGUCACUCAGCAGGGCAUCUCUGAGAGAAAUGCC

The variants in this data set derive from B1. The data set is described as follows: self-cleavage, relative activity (ratio to wild type); higher = more cleavage; in vitro, sequencing; the parent is a self-cleaving ribozyme.
As to A57G U108A, the self-cleavage turned out to be 0.8.

G58A U104A: the self-cleavage was 0.03.

G53U U134A: the self-cleavage is 0.68.

As for G54U A136G, the self-cleavage is 1.

For C56A U96C, the self-cleavage was 0.05.

With G54U A65G, the self-cleavage stood at 0.03.

Take G58U U143C: the self-cleavage turned out to be 0.07.

In the case of A59C C146U, the self-cleavage is 1.23.

Consider G53U U81A, for which the self-cleavage was determined as 1.52.

As for G55C C120U, the self-cleavage is 0.27.

As for G55A A107G, the self-cleavage turned out to be 0.22.

Turning to A57G G60C, the self-cleavage came out at 0.11.

On to C56A A121G, for which the self-cleavage amounted to 0.03.

For G54A U102C, the self-cleavage turned out to be 0.33.

As to C56U A124G, the self-cleavage is 0.08.

Take G58C G72U: the self-cleavage came out at 0.02.

G54U U104C: the self-cleavage was 1.28.

As for A57C A138G, the self-cleavage is 0.22.

For the variant G54A A77G, the self-cleavage was found to be 1.02.

On to G55A C111U, for which the self-cleavage came out at 0.3.

With A57C G86A, the self-cleavage was determined as 0.04.

As to G53U A142G, the self-cleavage is 1.2.

On to G58U U87C, for which the self-cleavage was determined as 0.03.

As for G58U C71U, the self-cleavage is 0.04.

For the variant A57U G88A, the self-cleavage amounted to 0.04.

With A57G A124G, the self-cleavage worked out at 0.41.

On to A57G A124U, for which the self-cleavage was 0.76.

Turning to A57U A121G, the self-cleavage came out at 0.15.

A57U A121U: the self-cleavage amounted to 0.12.

Take G54U U143C: the self-cleavage stood at 1.07.

For the variant A57U U102A, the self-cleavage was determined as 0.08.

On to G55C U108C, for which the self-cleavage was found to be 0.18.

On to G58U A64U, for which the self-cleavage was determined as 0.05.

For the variant A57G U62A, the self-cleavage came to 0.05.

With A57G U62C, the self-cleavage was found to be 0.08.

As for G58U A69G, the self-cleavage is 0.07.

For the variant A57U G106U, the self-cleavage was 0.09.

On to A57U G127A, for which the self-cleavage was 0.1.

On to G55U A59G, for which the self-cleavage was found to be 0.05.

As to G54A G75C, the self-cleavage worked out at 0.33.

G54U U96C: the self-cleavage was 0.07.

A57C G72U: the self-cleavage stood at 0.03.

Consider G58A A140G, for which the self-cleavage came out at 0.04.

Turning to G54A A92G, the self-cleavage amounted to 0.04.

On to C56U U134G, for which the self-cleavage was found to be 0.28.

As for A57G U115A, the self-cleavage was found to be 0.81.

Take A57G U115C: the self-cleavage was determined as 1.3.

In the case of G54U A138U, the self-cleavage was 1.01.

Take G53U U62C: the self-cleavage came out at 0.08.

With G58A A77G, the self-cleavage was determined as 0.06.

For G55A A121G, the self-cleavage is 0.26.

Take A57G C98U: the self-cleavage amounted to 0.19.

As for A59C A138U, the self-cleavage was found to be 1.62.

For G54A A69G, the self-cleavage was determined as 0.18.

With G54U C71U, the self-cleavage came to 0.16.

In the case of G53U U104C, the self-cleavage was determined as 2.38.

Turning to A57G C120U, the self-cleavage was determined as 1.54.

With A59G A78U, the self-cleavage was determined as 0.1.

Consider A57G U119C, for which the self-cleavage is 1.4.

In the case of A57U A117C, the self-cleavage was 0.28.

On to A57U A117G, for which the self-cleavage amounted to 0.09.

Regarding A57U A117U, the self-cleavage stood at 0.13.

Regarding A57U A78U, the self-cleavage is 0.03.

As to A57U A64C, the self-cleavage was determined as 0.06.

For A59G A64U, the self-cleavage turned out to be 0.08.

In the case of A59G A64G, the self-cleavage was 0.06.

A59G A64C: the self-cleavage turned out to be 0.

As to A59G A65U, the self-cleavage amounted to 0.08.

With A57U U62A, the self-cleavage is 0.03.

A57U U62G: the self-cleavage is 0.

A57U U62C: the self-cleavage was 0.05.

As to G53U U119A, the self-cleavage is 1.33.

With A59G A77U, the self-cleavage was 0.05.

With A59G A77C, the self-cleavage amounted to 0.33.

Consider A59G, for which the self-cleavage came to 0.09.

For A59C, the self-cleavage came to 0.96.

As to C56A U104C, the self-cleavage stood at 0.1.

As to C56U U112A, the self-cleavage worked out at 0.1.

As to A57G A117G, the self-cleavage worked out at 1.41.

Take A57G A129G: the self-cleavage is 0.74.

Take C56A U100C: the self-cleavage was determined as 0.1.

As to A57U A142G, the self-cleavage came to 0.12.

Take A57U A142U: the self-cleavage is 0.08.

For the variant G55C C76A, the self-cleavage came to 0.1.

With A57G A107U, the self-cleavage came to 0.92.

As for A57U C98G, the self-cleavage was determined as 0.06.

In the case of G54A A65U, the self-cleavage is 0.1.

For the variant G54A A65G, the self-cleavage was 0.02.

With A57U A77U, the self-cleavage was found to be 0.05.

For the variant A57U U132A, the self-cleavage is 0.13.

In the case of A57U G125A, the self-cleavage turned out to be 0.04.

For the variant G58U A124G, the self-cleavage was 0.01.

On to G58U A124C, for which the self-cleavage stood at 0.03.

With A57U A124U, the self-cleavage is 0.09.

Turning to G54A A141G, the self-cleavage stood at 0.8.

With G58U U62A, the self-cleavage came to 0.02.

G58U U62C: the self-cleavage was 0.

For the variant G54A A117G, the self-cleavage was determined as 0.52.

G54U U108C: the self-cleavage came to 0.36.

Turning to G55A C63U, the self-cleavage is 0.13.

Regarding A57U C99U, the self-cleavage is 0.04.

On to A57U G83A, for which the self-cleavage is 0.03.

Consider G53U U112C, for which the self-cleavage is 1.31.

In the case of C56U U87C, the self-cleavage was found to be 0.11.

As to G55U U115A, the self-cleavage was determined as 0.14.

Take G55U U115C: the self-cleavage worked out at 0.4.

Turning to A57G A140U, the self-cleavage came to 1.05.

Consider A57C U102C, for which the self-cleavage was 0.1.

For the variant A57U G126A, the self-cleavage came out at 0.07.

Regarding A57U U108C, the self-cleavage is 0.17.

On to A57G U102A, for which the self-cleavage was 0.82.

Take A57G U102G: the self-cleavage was found to be 0.19.

As to G54A A121C, the self-cleavage turned out to be 1.05.

Regarding G54A A121G, the self-cleavage was determined as 0.51.

For G54U U100C, the self-cleavage came out at 0.22.

Consider G58U A140G, for which the self-cleavage was 0.05.

With C56G A92U, the self-cleavage turned out to be 0.04.

Consider G54A C84U, for which the self-cleavage amounted to 0.08.

In the case of A57G G126A, the self-cleavage came to 1.19.

With G55U U85A, the self-cleavage was determined as 0.03.

For A57G A69U, the self-cleavage turned out to be 0.07.

In the case of A57G U81A, the self-cleavage is 1.16.

For the variant A57G U81C, the self-cleavage is 0.89.

In the case of A57U U104A, the self-cleavage is 0.06.

For the variant G54U A69G, the self-cleavage came out at 0.17.

Regarding A57G A141G, the self-cleavage is 0.72.

Turning to G53U U130A, the self-cleavage was determined as 1.53.

Consider G58A U134C, for which the self-cleavage was found to be 0.01.

For A57U A67U, the self-cleavage was determined as 0.02.

A57G A67U: the self-cleavage was 0.06.

For the variant G54A U62C, the self-cleavage worked out at 0.07.

As to G54A U62A, the self-cleavage came out at 0.01.

For the variant G54A A129G, the self-cleavage stood at 0.76.

Consider G54A A129U, for which the self-cleavage came out at 0.4.

For A57G C84U, the self-cleavage amounted to 0.11.

Consider G54U C84U, for which the self-cleavage was 0.07.

Consider A57U U119C, for which the self-cleavage was 0.06.

A57C A92U: the self-cleavage is 0.

For the variant G58A A121G, the self-cleavage was 0.13.

For the variant G54A A64G, the self-cleavage was 0.13.

For A57G C128A, the self-cleavage was 0.12.

Turning to A57G C128U, the self-cleavage turned out to be 0.79.

Take G55U U134C: the self-cleavage was 0.29.

Regarding G55C A77U, the self-cleavage worked out at 0.06.

For the variant A57U U115C, the self-cleavage was determined as 0.18.

Take A57U A65G: the self-cleavage amounted to 0.07.

Turning to C56U A67G, the self-cleavage was determined as 0.07.

For the variant G54A U100A, the self-cleavage turned out to be 0.16.

Take G54A U100C: the self-cleavage was found to be 0.31.

With C56U U115C, the self-cleavage turned out to be 0.19.

Regarding C56A U73C, the self-cleavage is 0.05.

In the case of A59G A79U, the self-cleavage amounted to 0.07.

Take A57U C63A: the self-cleavage is 0.04.

Regarding G54A U143A, the self-cleavage turned out to be 0.45.

For G54A A78U, the self-cleavage amounted to 0.79.

On to G55A U112C, for which the self-cleavage was 0.14.

Regarding G54C U96C, the self-cleavage came to 0.03.

On to G54U G105A, for which the self-cleavage was determined as 0.87.

Take A59C A142G: the self-cleavage came to 0.57.

In the case of A57G G75C, the self-cleavage is 0.35.

Turning to A57G G75A, the self-cleavage was 0.73.

For G58U U132C, the self-cleavage was 0.01.

As for A57U A69G, the self-cleavage worked out at 0.08.

On to A57U A69U, for which the self-cleavage was 0.

A57G A121G: the self-cleavage came to 1.07.

Regarding G58A U73C, the self-cleavage turned out to be 0.04.

Regarding A57C A121U, the self-cleavage came to 0.03.
